The values below come from patent US20050245441A1.

In the assay the target is rat GIP receptor (rat) (UniProt P43219). Nature of the assay: cell-based or functional assay.
Chain of UniProt P43219 (P43219 19-455): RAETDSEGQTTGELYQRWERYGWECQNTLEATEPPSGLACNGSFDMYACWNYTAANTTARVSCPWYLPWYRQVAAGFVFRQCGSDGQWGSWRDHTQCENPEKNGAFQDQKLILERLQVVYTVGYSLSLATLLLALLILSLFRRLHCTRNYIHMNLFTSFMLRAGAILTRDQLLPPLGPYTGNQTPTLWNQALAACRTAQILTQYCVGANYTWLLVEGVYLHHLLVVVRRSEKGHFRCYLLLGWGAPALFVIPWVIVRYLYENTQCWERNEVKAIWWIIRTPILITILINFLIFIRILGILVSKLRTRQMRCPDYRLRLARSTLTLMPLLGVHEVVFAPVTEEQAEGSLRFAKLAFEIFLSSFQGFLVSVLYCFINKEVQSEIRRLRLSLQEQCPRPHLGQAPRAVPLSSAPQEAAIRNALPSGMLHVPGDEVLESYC

Substance “synthetic porcine GIP (Sigma) (from UniProt P01281 1-42) (peptide)” had a cell proliferation (CyQUANT DNA content) of cultured adult hippocampal progenitor cells, 1 nM GIP, 48 h (% increase relative to control) of 74.5 and a methyl-[3H]-thymidin incorporation in cultured adult hippocampal progenitor cells, 1 nM GIP, 24 h (% increase compared to control) of 32.4.
